Assay results as given in patent US20070092518A1 (published 2007).

biological target: T1, human tumor necrosis factor-α (rHuTNF-alpha, Biosource) (human, UniProt P01375 77-233); assay: solid-phase ELISA, Fab lysate on coated rHuTNF-alpha
T1 construct: Bought recombinant protein coated on ELISA plates; The TNFα of the Biacore assay is not described further; also called TNFα; human TNFα
Outline: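 E. coli lysates expressing His-tagged Fab (pTrcHis2A) were incubated 2 h at RT on wells coated with 1 μg/ml rHuTNF-α and blocked with BSA. Bound Fab was detected with biotinylated anti-human kappa plus penta-His conjugates, then streptavidin-POD and TMB. Absorbance was read at 450 nm.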

T1 sequence (P01375 77-233 limits assumed): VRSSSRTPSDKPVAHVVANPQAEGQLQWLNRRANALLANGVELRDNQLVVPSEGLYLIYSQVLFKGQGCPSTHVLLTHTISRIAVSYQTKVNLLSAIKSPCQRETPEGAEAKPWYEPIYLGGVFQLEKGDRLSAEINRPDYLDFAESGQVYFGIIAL

| Binder | binding result |
| --- | --- |
| SEQ ID NO 157 (Fab, V domains shown, Fab, E. coli lysate) VH: EVQLTESGGGLVQPGGSLRLSCRASGSIFSNHWMNWVRQAPGKGLEWIGEIRSKSIYSATSYAESVKGRFIISRDDNGTSLTLEMNSLKTEDTAEYYCAQNYYGSTPDYWGQGTLVTVS VL: EIVLTQSPDFQSVTPKEKVTITCRASQFVGSSIHWYQQKPDQSPKLLIKYASESMSGVPSRFSGSGSGTDFTFTISSLEAEDAATYYCQQSHSWPFTFGPGTKVDIK | binds |
| SEQ ID NO 158 (Fab, V domains shown, Fab, E. coli lysate) VH: EVQLVESGGGLVQPGGSLRLSCRASQFIFSNHWMNWVRQAPGKGLEWIGEIRSKSIYGATHYAESVKGRFIISRDDNKNDLYLEMNSLKTEDTAEYYCARNYYGSTPDYWGQGTLVTVS VL: EIVLTQSPDFQSVTPKEKVTITCRASQFVGSSIHWYQQKPDQSPKLLIKYASESMSGVPSRFSGSGSGTDFTFTISSLEAEDAATYYCQQSHSWPFTFGPGTKVDIK | binds |
| SEQ ID NO 159 (Fab, V domains shown, Fab, E. coli lysate) VH: EVQLVESGGGLVQPGGSLRLSCAASGFIFSNHWMNWVRQAPGKGLEWIGEIRSKSIYSATSYAESVKGRFIISRDGNGTSLTLEMNSLKTEDTAEYYCARNYYGSTYDYWGQGTLVTVS VL: EIVLTQSPDFQSVTPKEKVTITCRASQFVGSSIHWYQQKPDQSPKLLIKYASESMSGVPSRFSGSGSGTDFTFTISSLEAEDAATYYCQQSHSWPFTFGPGTKVDIK | binds |
| SEQ ID NO 161 (Fab, V domains shown, Fab, E. coli lysate) VH: EVQLTESGGGLVQPGGSLRLSCRASGFIFSNHWMNWVRQAPGKGLEWIGEIRSKSIYSATHYAESVKGRFIISRDDNGNDLYLEMNSLKTEDTAEYYCAQNYYGSTPDYWGQGTLVTVS VL: EIVLTQSPDFQSVTPKEKVTITCRASQFVGSSIHWYQQKPDQSPKLLIKYASESMSGVPSRFSGSGSGTDFTFTISSLEAEDAATYYCQQSHSWPFTFGPGTKVDIK | binds |
| SEQ ID NO 162 (Fab, V domains shown, Fab, E. coli lysate) VH: EVQLVESGGGLVQPGGSLRLSCAASQFIFSNHYMNWVRQAPGKGLEWIGEIRSKSSYSATHYAESVKGRFIISRDGNKNDLTLEMNSLKTEDTAEYYCARNYYGSTYDYWGQGTLVTVS VL: EIVLTQSPDFQSVTPKEKVTITCRASQFVGSSIHWYQQKPDQSPKLLIKYASESMSGVPSRFSGSGSGTDFTFTISSLEAEDAATYYCQQSHSWPFTFGPGTKVDIK | binds |
| SEQ ID NO 163 (Fab, V domains shown, Fab, E. coli lysate) VH: EVQLVESGGGLVQPGGSLRLSCAASQFIFSNHWMNWVRQAPGKGLEWIGEIRSKSIYSATHYAESVKGRFIISRDDNKTDLTLEMNSLKTEDTAEYYCAQNYYGSTPDYWGQGTLVTVS VL: EIVLTQSPDFQSVTPKEKVTITCRASQFVGSSIHWYQQKPDQSPKLLIKYASESMSGVPSRFSGSGSGTDFTFTISSLEAEDAATYYCQQSHSWPFTFGPGTKVDIK | binds |
| SEQ ID NO 164 (Fab, V domains shown, Fab, E. coli lysate) VH: EVQLTESGGGLVQPGGSLRLSCAASGSIFSNHYMNWVRQAPGKGLEWIGEIRSKSIYSATHYAESVKGRFIISRDGNGTDLYLEMNSLKTEDTAEYYCARNYYGSTYDYWGQGTLVTVS VL: EIVLTQSPDFQSVTPKEKVTITCRASQFVGSSIHWYQQKPDQSPKLLIKYASESMSGVPSRFSGSGSGTDFTFTISSLEAEDAATYYCQQSHSWPFTFGPGTKVDIK | binds |
| SEQ ID NO 165 (Fab, V domains shown, Fab, E. coli lysate) VH: EVQLVESGGGLVQPGGSLRLSCAASQFTFSNHYMNWVRQAPGKGLEWIGEIRSKSSYGATHYAESVKGRFIISRDGNKTDLYLEMNSLKTEDTAEYYCAQNYYGSTYDYWGQGTLVTVS VL: EIVLTQSPDFQSVTPKEKVTITCRASQFVGSSIHWYQQKPDQSPKLLIKYASESMSGVPSRFSGSGSGTDFTFTISSLEAEDAATYYCQQSHSWPFTFGPGTKVDIK | binds |
